B1: CPEB3 Ribozyme (parent)
chain: UAACAGGGGGCCACAGCAGAAGCGUUCACGUCGCAGCCCCUGUCAGAUUCUGGUGAAUCUGCGAAUUCUGCUGUAUAUCUC

Variants of: B1
Experiment: self-cleavage, relative activity (ratio to wild type); higher = more cleavage; in vitro, sequencing
Method in brief: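 Barcoded CPEB3 ribozyme mutants, produced by rounds of error-prone PCR, self-cleaved while being transcribed with T7 RNA polymerase for 5 hours at 37°C and during a subsequent 15 min DNase I step before EDTA was added. Sequencing of template-switched cDNA on Illumina gave cleaved and total reads, and DNA sequencing assigned barcodes to variants. Each variant's relative activity is its cleaved/total read fraction divided by the unmutated ribozyme's fraction, averaged across three batches. A variant needed a minimum of 5 reads.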

Question: Which self-cleavage does the source give for CAACAGGGGGCCACAGCGGAAGCGUUCACGUCGCAGCCCCUGUCAGAUUCUGGUGAAUCUGCGAAUUCUGCUGUAUAUCUC here?
Answer: 0.48

Question: With CAACAGGGGGCCUCAGCAGAAGCGUUCACGUCGCAGCCCCUGUCAGAUUCUGGUGAAUCUGCGAAUUCUGCUGUAUAUCUC as the variant, how does the self-cleavage read?
Answer: 1.13

Question: With CAACAGGGGGCCGCAGCAGAAGCGUUCACGUCGCAGCCCCUGUCAGAUUCUGGUGAAUCUGCGAAUUCUGCUGUAUAUCUC as the variant, how does the self-cleavage read?
Answer: 0.79

Question: Which self-cleavage does the source give for AAACAGGGGGCCACAGCAGAAGCGUUCACAUCGCAGCCCCUGUCAGAUUCUGGUGAAUCUGCGAAUUCUGCUGUAUAUCUC here?
Answer: 0.11

Question: For AAACAGGGGGCCACAGCAGAAGCGUUCACGUCGCACCCCCUGUCAGAUUCUGGUGAAUCUGCGAAUUCUGCUGUAUAUCUC, which self-cleavage is on record?
Answer: 0.09

Question: For AAACAGGGGGCCACAGCAGAAGCGUUCACGUCGCAACCCCUGUCAGAUUCUGGUGAAUCUGCGAAUUCUGCUGUAUAUCUC, which self-cleavage is on record?
Answer: 0.29

Question: Which self-cleavage does the source give for AAACAGGGGGCCACAGCAGAAGCGUUCACGUCGCAGCCCCUGUCAGAUUCUGGAGAAUCUGCGAAUUCUGCUGUAUAUCUC here?
Answer: 1.14

Question: Which self-cleavage does the source give for AAACAGGGGGCCACAGCAGAAGCGUUCACGUCGCAGCCCCUGUCAGAUUCUGGCGAAUCUGCGAAUUCUGCUGUAUAUCUC here?
Answer: 1.08

Question: With AAACAGGGGGCCACAGCAGAAGCGUUCACGUCGCAGCCCCUGUCAGAUUCUGGGGAAUCUGCGAAUUCUGCUGUAUAUCUC as the variant, how does the self-cleavage read?
Answer: 0.76

Question: With AAACAGGGGGCCACAGCAGAAGCGUUCACGUCGCAGCCCCUGUCAGAUUCUAGUGAAUCUGCGAAUUCUGCUGUAUAUCUC as the variant, how does the self-cleavage read?
Answer: 1.1

Question: With CAACAGGGGGCCACCGCAGAAGCGUUCACGUCGCAGCCCCUGUCAGAUUCUGGUGAAUCUGCGAAUUCUGCUGUAUAUCUC as the variant, how does the self-cleavage read?
Answer: 0.62

Question: Which self-cleavage does the source give for CAACAGGGGGCCACUGCAGAAGCGUUCACGUCGCAGCCCCUGUCAGAUUCUGGUGAAUCUGCGAAUUCUGCUGUAUAUCUC here?
Answer: 0.55

Question: With CAACAGGGGGCCACGGCAGAAGCGUUCACGUCGCAGCCCCUGUCAGAUUCUGGUGAAUCUGCGAAUUCUGCUGUAUAUCUC as the variant, how does the self-cleavage read?
Answer: 0.6

Question: For AAACAGGGGGCCACAGCAGAAGCGUUCACGUCGCAGCCCCUGUCAGAUUCUGGUGAAUCUCCGAAUUCUGCUGUAUAUCUC, which self-cleavage is on record?
Answer: 0.29

Question: Which self-cleavage does the source give for AAACAGGGGGCCACAGCAGAAGCGUACACGUCGCAGCCCCUGUCAGAUUCUGGUGAAUCUGCGAAUUCUGCUGUAUAUCUC here?
Answer: 1.02

Question: For AAACAGGGGGCCACAGCAGAAGCGUCCACGUCGCAGCCCCUGUCAGAUUCUGGUGAAUCUGCGAAUUCUGCUGUAUAUCUC, which self-cleavage is on record?
Answer: 0.47

Question: For AAACAGGGGGCCACAGCAGAAGCGUUCACGUCGCAGCCCCUGUCAGAUUCUGGUGAAUCUGCGAAUUCUGCUGUAUACCUC, which self-cleavage is on record?
Answer: 0.91

Question: For AAACAGGGGGCCACAGCAGAAGCGUUCACGUCGCAGCCCCUGUCAGAUUCUGGUGAAUCUGCGAAUUCUGCUGUAUAACUC, which self-cleavage is on record?
Answer: 0.99

Question: Which self-cleavage does the source give for AAACAGGGGGCCACAGCAGAAGCGAUCACGUCGCAGCCCCUGUCAGAUUCUGGUGAAUCUGCGAAUUCUGCUGUAUAUCUC here?
Answer: 0.34

Question: For AAACAGGGGGCCACAGCAGAAGCGCUCACGUCGCAGCCCCUGUCAGAUUCUGGUGAAUCUGCGAAUUCUGCUGUAUAUCUC, which self-cleavage is on record?
Answer: 0.41

Question: For AAACAGGGGGCCACAGCAGAAACGUUCACGUCGCAGCCCCUGUCAGAUUCUGGUGAAUCUGCGAAUUCUGCUGUAUAUCUC, which self-cleavage is on record?
Answer: 0.23

Question: For AAACAGGGGGCCACAGCAGAAGCGUUCACGUCGCAGCCCCUGUCAGAUUCUGGUGAAUCUGCGAACUCUGCUGUAUAUCUC, which self-cleavage is on record?
Answer: 0.4

Question: Which self-cleavage does the source give for AAACAGGGGGCCACAGCAGAAGCGUUCACGUCGCAGCCCCUGUCAGAUUCUGGUGAAUCUGCGAAAUCUGCUGUAUAUCUC here?
Answer: 0.42

Question: With AAACAGGGGGCCACAGCAGAAGCGUUCACGUCGCAGCCCCUGUCAAAUUCUGGUGAAUCUGCGAAUUCUGCUGUAUAUCUC as the variant, how does the self-cleavage read?
Answer: 0.43

Question: Which self-cleavage does the source give for AAACAGGGGGCCACAGCAGAAGCAUUCACGUCGCAGCCCCUGUCAGAUUCUGGUGAAUCUGCGAAUUCUGCUGUAUAUCUC here?
Answer: 0.25

Question: Which self-cleavage does the source give for AAACAGGGGGCCACAGCAGAAGCGUUCACGUCGCAGCCCCUGUCAGAUUCUGGUGAAUCUGCGAAUUCUGCUGCAUAUCUC here?
Answer: 1.18

Question: Which self-cleavage does the source give for AAACAGGGGGCCACAGCAGAAGCGUUCACGUCGCAGCCCCUGUCAGAUUCUGGUGAAUCUGCGAAUUCUGCUGAAUAUCUC here?
Answer: 1.25

Question: With CAGCAGGGGGCCACAGCAGAAGCGUUCACGUCGCAGCCCCUGUCAGAUUCUGGUGAAUCUGCGAAUUCUGCUGUAUAUCUC as the variant, how does the self-cleavage read?
Answer: 0.9

Question: Which self-cleavage does the source give for CAUCAGGGGGCCACAGCAGAAGCGUUCACGUCGCAGCCCCUGUCAGAUUCUGGUGAAUCUGCGAAUUCUGCUGUAUAUCUC here?
Answer: 0.83

Question: Which self-cleavage does the source give for AAACAGGGGGCCACAGCAGAAGCGUUCACGACGCAGCCCCUGUCAGAUUCUGGUGAAUCUGCGAAUUCUGCUGUAUAUCUC here?
Answer: 0.64

Question: Which self-cleavage does the source give for AAACAGGGGGCCACAGCAGAAGCGUUCACGCCGCAGCCCCUGUCAGAUUCUGGUGAAUCUGCGAAUUCUGCUGUAUAUCUC here?
Answer: 0.65

Question: For AAACAGGGGGCCACAGCAGAAGCGUUCACGUCGCAGCCCCGGUCAGAUUCUGGUGAAUCUGCGAAUUCUGCUGUAUAUCUC, which self-cleavage is on record?
Answer: 0.27

Question: Which self-cleavage does the source give for AAACAGGGGGCCACAGCAGAAGCGUUCACGUCGCAGCCCCAGUCAGAUUCUGGUGAAUCUGCGAAUUCUGCUGUAUAUCUC here?
Answer: 0.2

Question: With AAACAGGGGGCCACAGCAGAAGCGUUCACGUCGCAGCCCCCGUCAGAUUCUGGUGAAUCUGCGAAUUCUGCUGUAUAUCUC as the variant, how does the self-cleavage read?
Answer: 0.89

Source: the RNAGym collection of RNA variant scans (doi:10.1093/nar/gkz1192)
